Assay results reported in patent US20260250412A1 (GENEQUANTUM HEALTHCARE SUZHOU, published 2026).

B1: Datopotamab (antibody, human IgG1, kappa, V domains shown)
VH: QVQLVQSGAEVKKPGASVKVSCKASGYTFTTAGMQWVRQAPGQGLEWMGWINTHSGVPKYAEDFKGRVTISADTSTSTAYLQLSSLKSEDTAVYYCARSGFGSSYWYFDVWGQGTLVTVSS
VL: DIQMTQSPSSLSASVGDRVTITCKASQDVSTAVAWYQQKPGKAPKLLIYSASYRYTGVPSRFSGSGSGTDFTLTISSLQPEDFAVYYCQQHYITPLTFGQGTKLEIKR
notes: expressed in HEK293F; also called DS1062a Ab; DS1062's antibody
B2: Trodelvy (antibody, human IgG1, kappa)
heavy: not shown
light: DIQLTQSPSSLSASVGDRVSITCKASQDVSIAVAWYQQKPGKAPKLLIYSASYRYTGVPDRFSGSGSGTDFTLTISSLQPEDFAVYYCQQHYITPLTFGAGTKVEIKRTVAAPSVFIFPPSDEQLKSGTASVVCLLNNFYPREAKVQWKVDNALQSGNSQESVTEQDSKDSTYSLSSTLTLSKADYEKHKVYACEVTHQGLSSPVTKSFNRGEC
modifications: SN-38 conjugated; sites not stated
notes: also called IMMU-132
B3: hRS7 (from TRODELVY) (antibody, human IgG1, kappa)
heavy: not shown
light: DIQLTQSPSSLSASVGDRVSITCKASQDVSIAVAWYQQKPGKAPKLLIYSASYRYTGVPDRFSGSGSGTDFTLTISSLQPEDFAVYYCQQHYITPLTFGAGTKVEIKRTVAAPSVFIFPPSDEQLKSGTASVVCLLNNFYPREAKVQWKVDNALQSGNSQESVTEQDSKDSTYSLSSTLTLSKADYEKHKVYACEVTHQGLSSPVTKSFNRGEC
notes: expressed in HEK293F; also called Trodelvy's antibody
B4: Ab13 (antibody, human IgG1, kappa, V domains shown)
VH: QVQLQQSGSELKKPGASVKVSCKASGYTFTNAGMNWVKQAPGQGLKWMGWINTDSGEPTYTDDFKGRFAFSLDTSVSTAYLQISSLKADDTAVYFCARGGFGSSYWYFDVWGQGSLVTVSS
VL: DIQLTQSPSSLSASVGDRVSITCKASQDVSIAVAWYQQKPGKAPKLLIYSASYRYTGVPDRFSGSGSGTDFTLTISSLQPEDFAVYYCQQHYITPLTFGAGTKVEIKR
B5: Ab16 (antibody, human IgG1, kappa, V domains shown)
VH: QVQLQQSGSELKKPGASVKVSCKASGYTFTAAGMNWVKQAPGQGLKWMGWINTYTGEPTYTDDFKGRFAFSLDTSVSTAYLQISSLKADDTAVYFCARGGFGSSYWYFDVWGQGSLVTVSS
VL: DIQLTQSPSSLSASVGDRVSITCKASQDVSIAVAWYQQKPGKAPKLLIYSASYRYTGVPDRFSGSGSGTDFTLTISSLQPEDFAVYYCQQHYITPLTFGAGTKVEIKR
B6: ADC-2 (antibody, human IgG1, kappa)
heavy: not shown
light: DIQLTQSPSSLSASVGDRVSITCKASQDVSIAVAWYQQKPGKAPKLLIYSASYRYTGVPDRFSGSGSGTDFTLTISSLQPEDFAVYYCQQHYITPLTFGAGTKVEIKRTVAAPSVFIFPPSDEQLKSGTASVVCLLNNFYPREAKVQWKVDNALQSGNSQESVTEQDSKDSTYSLSSTLTLSKADYEKHKVYACEVTHQGLSSPVTKSFNRGECGALPETGG
B7: GQhRS7 (antibody, human IgG1, kappa)
heavy: not shown
light: DIQLTQSPSSLSASVGDRVSITCKASQDVSIAVAWYQQKPGKAPKLLIYSASYRYTGVPDRFSGSGSGTDFTLTISSLQPEDFAVYYCQQHYITPLTFGAGTKVEIKRTVAAPSVFIFPPSDEQLKSGTASVVCLLNNFYPREAKVQWKVDNALQSGNSQESVTEQDSKDSTYSLSSTLTLSKADYEKHKVYACEVTHQGLSSPVTKSFNRGECGALPETGG
notes: unconjugated

What was measured:
[1] = biological target: T1, recombinant extracellular domain of human TROP2 (human, UniProt P09758 27-274); assay: SPR (Biacore T200), antibody captured on Protein A chip, TROP2 ECD as analyte, 1:1 model, 25 C
T1 construct: extracellular domain; also called Human Trop 2 ECD; Trop2 ECD
T1 sequence (looked up): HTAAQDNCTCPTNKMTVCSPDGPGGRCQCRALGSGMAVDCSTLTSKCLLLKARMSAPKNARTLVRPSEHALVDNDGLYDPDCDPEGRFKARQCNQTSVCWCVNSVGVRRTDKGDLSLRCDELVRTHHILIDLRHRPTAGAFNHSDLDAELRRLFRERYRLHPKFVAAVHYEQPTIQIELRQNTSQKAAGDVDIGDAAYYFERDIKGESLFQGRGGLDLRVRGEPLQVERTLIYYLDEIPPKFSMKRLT
Description: Binding kinetics and affinity analysis were performed. Surface Plasmon Resonance (SPR) analysis was performed on a Biacore T200 (GE healthcare) with a Sensor Chip Protein A (GE healthcare) following manufacturer's instructions. All measurements were performed at 25° C. in the HBS-EP⁺ buffer (10 mM HEPES, pH 7.4, 150 mM NaCl, 3 mM EDTA, and 0.05% surfactant P20). About 110-140 RU (Resonance unit) of each of the purified antibodies was captured on flow cells 2 and 4 (i.e., the reaction surface) of the sensor chip, respectively. Flow cells 1 and 3 were treated with the HBS-EP⁺ buffer to serve as reference surfaces.
Serial dilutions of the recombinant extracellular domain of human TROP2 (i.e., the analyte) (Acrobio system) (243, 81, 27, 9, 3, 1, 0.333, and 0.111 nM, respectively) were prepared in HBS-EP⁺ buffer. Capturing of the antibodies was followed by a three-minute injection (association phase) of serial dilutions of TROP2 at a flow rate of 30 μL/min and ten minutes of buffer flow (dissociation phase). The chip surface was regenerated by two pulses of 30-second injection of 10 mM Glycine-HCl pH 1.5 at a flow rate of 50 μL/min. The collected data were processed on a Biacore T200 Evaluation software using methods known in the art, comprising the following steps: (1) setting the response on the y-axis and the start of the injection on the x-axis to zero, (2) performing double referencing by firstly subtracting the reference surface data from the reaction surface data to get the analyte injection curves, and then subtracting the buffer injection curves from the analyte injection curves, and (3) performing the kinetic analysis using the 1:1 binding model with a global fit.

[2] = biological target: T1, recombinant extracellular domain of …; assay: ELISA on plate-coated human Trop2 ECD (0.5 ug/mL), detection with goat anti-human Fc-HRP, TMB, absorbance at 450 nm
Description: Human Trop 2 ECD at concentration of 0.5 μg/mL was coated on 96-well plates at 4° C. for overnight. The plates were then blocked with 3% BSA-PBST for 1 h at room temperature. […] After incubation goat anti-human FC secondary antibody (HRP) (Sinobiological, SSA001) was added at a ratio of 1:100000 and incubated at room temperature for 60 min again. Following the wash, the plate was treated with TMB solution (Sigma, T0440) as an HRP substrate, and the reaction was stopped with 1 M H₂SO₄. The absorbance for each well was detected at 450 nm wavelength.

| Binder | Kd [1] | EC50 (read off the curve) [2] |
| --- | --- | --- |
| B1 | 13 nM |  |
| B2 |  | ~0.02 µg/mL |
| B3 | 1.28 nM |  |
| B4 | 8.16 nM |  |
| B5 | 13.1 nM |  |
| B6 |  | ~0.02 µg/mL |
| B7 |  | ~0.02 µg/mL |
